Data from PMC12605379, “Monomeric Glycine oxidase from Azotobacter vinelandii for Glycine biosensing” (World Journal of Microbiology & Biotechnology, 2025).
Values belong to the molecule of their own block, whether it stands above or below them.

What was measured:
[1] = molecular target: T1, AviGO (glycine oxidase from A. vinelandii) (Azotobacter vinelandii, UniProt C1DPI5); experiment: HRP-coupled H2O2 assay (4-aminoantipyrine / N,N-diethylaniline, […] nm), substrate inhibition model; type: biochemical; details: substrate inhibition constant; 100 mM Tris-HCl pH 8.5, free enzyme 20 nM
T1 construct: gene thiO; codon-optimised synthetic gene in pCold I (NdeI/XbaI), expressed in E. coli BL21(DE3); HisTrap then Q-Sepharose, vector His tag, no cleavage told
T1 sequence (C1DPI5 1-363): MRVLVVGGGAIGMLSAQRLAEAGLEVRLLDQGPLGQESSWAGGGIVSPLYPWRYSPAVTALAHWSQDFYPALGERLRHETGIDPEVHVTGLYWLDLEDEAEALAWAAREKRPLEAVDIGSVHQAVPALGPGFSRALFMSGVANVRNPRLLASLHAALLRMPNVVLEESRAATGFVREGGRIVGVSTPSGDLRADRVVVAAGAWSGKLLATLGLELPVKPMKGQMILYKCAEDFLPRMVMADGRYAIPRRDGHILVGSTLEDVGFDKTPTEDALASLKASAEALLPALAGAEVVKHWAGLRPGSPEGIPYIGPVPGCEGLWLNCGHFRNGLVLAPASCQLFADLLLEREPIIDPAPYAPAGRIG

[2] = molecular target: T1, AviGO (glycine oxidase from A. vinelandii); experiment: UV-visible spectroscopy of the purified enzyme; type: binding; details: copurified cofactor; occupancy, no affinity constant
Protocol: UV-visible spectroscopy of the purified enzyme on AviGO (glycine oxidase from A. vinelandii) | The FAD/AviGO ratio was calculated from UV-visible spectroscopy of the purified enzyme

purified protein [3] = substrate: NCC(=O)O; experiment: purified protein; type: biochemical, Azotobacter vinelandii; details: 100 mM Tris-HCl pH 8.5, free enzyme 20 nM, 0.5-100 mM substrate, abstract prints Km 4.65
purified protein [4] = substrate: CNCC(=O)O; experiment: purified protein; type: biochemical, Azotobacter vinelandii; details: 100 mM Tris-HCl pH 8.5, free enzyme 20 nM, 0.5-100 mM substrate

- Glycine / ksi [1]: 23.00 ± 3.71 mM
Molecule: NCC(=O)O [glycine]

- FAD/AviGO ratio [2]: 0.38
Molecule: Cc1cc2nc3c(=O)[nH]c(=O)nc-3n(C[C@H](O)[C@H](O)[C@H](O)COP(=O)(O)OP(=O)(O)OC[C@H]3O[C@@H](n4cnc5c(N)ncnc54)[C@H](O)[C@@H]3O)c2cc1C [FAD]

B1: AviGO (glycine oxidase from A. vinelandii) (Azotobacter vinelandii DJ) (protein)
chain: MRVLVVGGGAIGMLSAQRLAEAGLEVRLLDQGPLGQESSWAGGGIVSPLYPWRYSPAVTALAHWSQDFYPALGERLRHETGIDPEVHVTGLYWLDLEDEAEALAWAAREKRPLEAVDIGSVHQAVPALGPGFSRALFMSGVANVRNPRLLASLHAALLRMPNVVLEESRAATGFVREGGRIVGVSTPSGDLRADRVVVAAGAWSGKLLATLGLELPVKPMKGQMILYKCAEDFLPRMVMADGRYAIPRRDGHILVGSTLEDVGFDKTPTEDALASLKASAEALLPALAGAEVVKHWAGLRPGSPEGIPYIGPVPGCEGLWLNCGHFRNGLVLAPASCQLFADLLLEREPIIDPAPYAPAGRIG
notes: codon-optimised synthetic gene in pCold I (NdeI/XbaI), expressed in E. coli BL21(DE3); HisTrap then Q-Sepharose, vector His tag, no cleavage told
- Km (purified protein [3]): 4.76 ± 0.83 mM
- kcat (purified protein [3]): 0.38 ± 0.03 s⁻¹
- Km (purified protein [4]): 11.09 ± 0.75 mM
- kcat (purified protein [4]): 0.62 ± 0.01 s⁻¹
